From paper PMC2759517 (2009) come the findings set out here.

Assay [1] has as its target T1, HA-tagged PA of FluB (Influenza B virus).
T1 chain: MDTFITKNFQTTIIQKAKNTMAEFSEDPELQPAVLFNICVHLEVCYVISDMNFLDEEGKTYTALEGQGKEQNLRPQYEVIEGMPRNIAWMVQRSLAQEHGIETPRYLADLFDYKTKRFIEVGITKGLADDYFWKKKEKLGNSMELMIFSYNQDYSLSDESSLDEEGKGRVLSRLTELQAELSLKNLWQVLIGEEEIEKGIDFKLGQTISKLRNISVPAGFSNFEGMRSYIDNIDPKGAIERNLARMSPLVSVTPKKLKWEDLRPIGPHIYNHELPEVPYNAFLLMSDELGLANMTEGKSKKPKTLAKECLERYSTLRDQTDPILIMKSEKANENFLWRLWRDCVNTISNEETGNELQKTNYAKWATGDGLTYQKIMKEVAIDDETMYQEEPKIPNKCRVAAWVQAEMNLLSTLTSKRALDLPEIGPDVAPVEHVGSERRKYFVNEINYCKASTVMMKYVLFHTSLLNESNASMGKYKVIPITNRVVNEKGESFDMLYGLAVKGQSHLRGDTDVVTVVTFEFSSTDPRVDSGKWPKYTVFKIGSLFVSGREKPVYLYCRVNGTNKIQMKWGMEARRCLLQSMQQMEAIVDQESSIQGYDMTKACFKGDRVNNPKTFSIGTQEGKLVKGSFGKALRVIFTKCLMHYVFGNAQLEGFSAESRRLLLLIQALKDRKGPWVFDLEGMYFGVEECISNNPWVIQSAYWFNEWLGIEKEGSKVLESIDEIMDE
In words: ELISA. In general terms: An ELISA detects its analyte on a solid surface through an enzyme-linked reagent.

The target in assay [2] is HA-tagged PA of FluA (Influenza A virus). In words: ELISA.

As usually defined, the IC50 is the point on the concentration scale where inhibition reaches its midpoint. A higher IC50 goes with a need for much substance.

Where no end group is shown, it is not given here. Some results are limits rather than exact numbers.

Consider MDVNPTLLFLKVPAQ-NH2 [PB1_(1–15)A competitor peptide], for which the IC50 in assay [1] is above 3 µM.
In the case of MNINPYFLFIDVPIQ-NH2 [PB1_(1–15)B competitor peptide], the IC50 was above 3 µM in assay [2] and 0.045 µM in assay [1].
